Results reported in patent publication US20080299097A1.

How the values were obtained:
CX3CR1 (human) = CX3CR1 (human) (UniProt P49238); test: cell-based or functional assay
CXCR4 (human) = CXCR4 (human) (UniProt P61073); test: cell-based or functional assay
Chain of UniProt P61073 (P61073 whole entry): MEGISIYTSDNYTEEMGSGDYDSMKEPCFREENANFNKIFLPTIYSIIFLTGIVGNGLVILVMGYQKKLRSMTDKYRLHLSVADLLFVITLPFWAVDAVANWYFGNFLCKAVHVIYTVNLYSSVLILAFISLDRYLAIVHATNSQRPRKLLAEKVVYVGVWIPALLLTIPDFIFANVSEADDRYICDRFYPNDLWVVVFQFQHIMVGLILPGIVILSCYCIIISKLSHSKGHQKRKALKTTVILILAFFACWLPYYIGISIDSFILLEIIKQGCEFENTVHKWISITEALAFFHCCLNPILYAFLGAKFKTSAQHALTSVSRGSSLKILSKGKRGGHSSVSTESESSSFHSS

Chain of UniProt P49238 (P49238 whole entry): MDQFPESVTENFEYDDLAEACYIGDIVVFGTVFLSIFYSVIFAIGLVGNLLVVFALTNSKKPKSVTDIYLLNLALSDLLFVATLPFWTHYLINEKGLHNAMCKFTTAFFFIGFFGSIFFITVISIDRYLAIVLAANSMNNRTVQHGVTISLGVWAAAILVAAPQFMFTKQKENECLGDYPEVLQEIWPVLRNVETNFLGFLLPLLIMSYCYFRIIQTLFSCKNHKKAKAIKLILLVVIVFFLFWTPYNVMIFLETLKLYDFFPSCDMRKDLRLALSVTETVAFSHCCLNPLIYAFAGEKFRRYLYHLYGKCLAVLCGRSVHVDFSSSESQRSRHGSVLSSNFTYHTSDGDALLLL

| decrease of neurosphere-induced migration of RS-MSCs and mMSCs (CX3CR1 (human)) [%] | decrease of neurosphere-induced migration of RS-MSCs and mMSCs (CXCR4 (human)) [%] | Substance |
| --- | --- | --- |
| 40 |  | anti-human CX3CR1 (clone 2A9-1; MBL) (antibody) |
|  | 40 | anti-human CXCR4 (clone 12G5; R&D Systems) (antibody) |
